This sample holds only a part of the variants without activity. Where only a bound is given, the exact number is not on record here.

The chains are these.
B1: TPR 5TU (parent)
chain: GGAUCUUCUCGAUCUAACAAAAAAGACAAAUCUGCCACAAAGCUUGAGAGCAUCUUCGGAUGCAGAGGCGGCAGCCUUCGGUGGCGCGAUAGCGCCAACGUUCUCAACUAUGACACGCAAAACGCGUGCUCCGUUGAAUGGAGUUUAUCAUG

The data set covers variants of B1. Nature of the data set: polymerase ribozyme fitness, log enrichment relative to wild type (log ratio); higher = more active; in vitro selection for triplet polymerase activity. An outline of the steps: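 To select mutant libraries of each subunit of a heterodimeric triplet polymerase ribozyme, built by PCR and transcribed, each was annealed with a biotinylated primer, partner subunit and triplets, then incubated frozen at −7 °C. Extended constructs were gel-excised, captured on streptavidin beads and amplified by RT-PCR, in one round carried out in triplicate. Illumina sequencing of input and output libraries kept genotypes with ≥10 input reads and ≥1 read per output. Fitness is the base-2 logarithm of genotype enrichment relative to wild-type enrichment, from inverse-variance-weighted replicate averages.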
Regarding GGAUCUUCUCGAUCUAACAAAAAAGACACAUCUGCCACAAAGCUUGAGAGCAUCUUCGGAUGCAGAGACGGCAGCCUUCGGUGGCGCGAUACCGCCAACGUUCUCAACUAUGACACGCAAAACGCGUGCUCCAUUGAAUGGAGUUUAUCAUG, the “polymerase ribozyme fitness (log ratio)” value is ≤ -4.2.

As for GGAUCUUCUCGAUCUAACAAAAAAGACAGAUCUGCCACAAAGCUUGAGAGCAUUUUCGAAUGCAGAGGCGGCAGCUUUCGGCGGCGCCAUAGCGGGAACGUUCUCAACUAUGACACGCAAAACGCGUGCUCCGUUGAAUGGAGUUUAUCAUG, the “polymerase ribozyme fitness (log ratio)” value was ≤ -4.2.

For the variant GGAUCUUCUCGAUCUAACAAAAAAGACUAAUCUGCCACAAAGCUUGAGAGCAUCUUCGGAUGCAGAGGCGGCAGCCUUCGGCGGCGCGAUAGUGCGAACGUUCUAAACUAUGACACGCAAAACGCGUGCUCCGUUGAAUGGAGUUUAUCAUG, the “polymerase ribozyme fitness (log ratio)” value is ≤ -4.2.

As for GGAUCUUCUCGAUCUAACAAAAAAGACACAUCUGCCACAAAGCUUGAGAGCAUCUUCGGAUGCAGAGGCGGCAGCAUUCGGUGGCGCGAUUGCGCCAACGUUCUCAACUGUGACACGCAAAACGCGUGCUCCGUUGAAUGGAGUUUAUCAUG, the “polymerase ribozyme fitness (log ratio)” value is ≤ -4.2.

With GGAUCUUCUCGAUCUAACAAAAAAGACAGAUCUGCCACAAAGCUUGAGAGCAUCUUCGGAUGCAGAGGCGGCAGCCUUCGGUGGCGCGAUAGUGCCAACGUUCUCAGCUAUGACACGCAAAACGCGUGCUCCGUUGAAUGGAGUUUAGCAUG, the “polymerase ribozyme fitness (log ratio)” value is ≤ -4.2.

GGAUCUUCUCGAUCUAACAAAAAAGACACAUCUGCCACAAAGCUUGAGAGCAUCAUCGGAUGCAGAGGCGGCAGCCUUCGGUGGCGCGAUAGCGCCAACGUUCUCAACUAUGACACGCAAAACGCGUGCUCCGUUGAAUGGAGUUUAUCAUG: the “polymerase ribozyme fitness (log ratio)” value was -3.74.

Turning to GGAUCUUCUCGAUCUAACAAAAAAGACACAUCUGCCACAAAGCUUGAGAGCCUCUUCGGAUGCAGAGGCGGCAGCUUUCGGUGGCGCGAUAGCGCAAACGUUCUCAACUAUGACACGCAAAACGCGUGCUCCGUGGAAUGGAGUUUCUCAUG, the “polymerase ribozyme fitness (log ratio)” value was -4.08.

GGAUCUUCUCGAUCUAACAAAAAAGACACAUCUGCCACAAAGCUUGAGAGCAUCUUCGGAUGCAGAGGCGGCAGCCUUCGGUGGCGCGAUAGCGCCAACGUUCUCAAAUAUGACACGCAAAACGCGUGCUCCGUUGAAUGGUGUUUAUCAUG: the “polymerase ribozyme fitness (log ratio)” value was ≤ -4.2.

On to GGAUCUUCUCGAUCUAACAAAAAAGACACAGCUGCCACAAAGCUUGAGAGCAUCUUCGGAUGCAGAGGCGGCAGCCUUCGGUGGCGCGAUAGCGACAACGUUCUCAACUAUGACACGCGAAACGCGUGCUCCGUUGAAUGGCGUUUAUCAUU, for which the “polymerase ribozyme fitness (log ratio)” value was ≤ -4.2.

For the variant GGAUCUUCUCGAUCUAACAAAAAAGACACAUCUGCCACAAAGCUUGAGAGCAUCAUCGGAUGCAGAGGCGGCAGCCGUCGGUGGCGCGAUAGCGCCAACGGUCUCAACUAUGACACGCAAAACGCGUGCUCCGUUGAAUGGAGUUAAGCAUG, the “polymerase ribozyme fitness (log ratio)” value was ≤ -4.2.

For the variant GGAUCUUCUCGAUCUAACAAAAAAGACAGAUCUGCCACAAAGCUUGAGAGCAUCUUCGGAUGCAGAGGCGGCAGCCUUCGGUGGCGCGAUAGCGCCAGCGUUCUCAACUAUGACACGCAAAACGCGUGCUCCGUUGAAUGGAGUUUAUCAUG, the “polymerase ribozyme fitness (log ratio)” value was ≤ -4.2.

Turning to GGAUCUUCUCGAUCUAACAAAAAAGACACAUCUGCCACAAAGGUUGAGAGCAACUUCGGAUUCAGAGGCGGCAGCCUUCGGUGGCGCGAUAGCGCCAACGUUCUCAACUAUGACACGCAAAACGCGUGCUCCGUUGAAUGGAGUUUCUCAUG, the “polymerase ribozyme fitness (log ratio)” value was ≤ -4.2.

For the variant GGAUCUUCUCGAUCUAACAAAAAAGACACAUCUGCCACAAAGCUUGAGAGCAUCUUCGGAUGCAGAGGGGGCAGCCUUCGGUGGCGCGAUAGCGCCAACGUUGUCAACUAUGACACGCAAAACGCGUGCUCCGUUGAAUGGAGUUUAUCAGG, the “polymerase ribozyme fitness (log ratio)” value was ≤ -4.2.

Regarding GGAUCUUCUCGAUCUAACAAAAAAGACUAAUCUGCCACAAAGCUUGAGAGCAUCUUCGGAUGCAGAGGCGGCAGCCUUCGGGGGCGCGAUAGCGCCAACGUUCUCAACUAUGACACGCAAAACGCGUGCUCCGUUGCAUGGAGUUUAUCAUG, the “polymerase ribozyme fitness (log ratio)” value is ≤ -4.2.

Regarding GGAUCUUCUCGAUCUAACAAAAAAGACACAUCUGCCACAAAGCUUGAGUGCAUCUUCGGAUGCAGAGGCGGCAGCCUUCGGUGGCGCGAUAGCGCCAACGUUCUCAACUAUGACACGCAAAACGCGUGCUCCGUUGAAUGGAGUUUAUCCUG, the “polymerase ribozyme fitness (log ratio)” value is ≤ -4.2.

On to GGAUCUUCUCGAUCUAACAAAAAAGACACAUCUGCCACAAAGCUUGAGAGCAUUUUCGGAUGCAGAGGCGGCAGCCUUCGGUGACGCGAUAGCGCCUACGUUCUCAACUAUGACACGCAAAACGCGUGCUCCGUUGAAUGGAGUUUAUCAUG, for which the “polymerase ribozyme fitness (log ratio)” value is ≤ -4.2.

Turning to GGAUCUUCUCGAUCUAACAAAAAAGACACAUCUGCCACAAAGCUUGAGAGCAUCUUCGGAUGAAGAGGCGGCAGCCUUCGGUGGCGUGAUAGCGCCAACGCUCUCAACUAUGACCCCCAAAACGCGUGCUCCAUUGAAUGGAGUUUAUCAUG, the “polymerase ribozyme fitness (log ratio)” value was ≤ -4.2.

For GGAUCUUCUCGAUCUAACAAAAAAGACAGAUCUGCCACAAAGCUUGAGAGCAUCUUGGGAUGCAGAGGCGGCAGCCUUCGGUGGCGCGAUAGCGCCAACGUUCUCAACUAUGACACGCAAAACGCGUGCUCCGUUUAAUGGAGUUUAUCAUG, the “polymerase ribozyme fitness (log ratio)” value was ≤ -4.2.

Consider GGAUCUUCUCGAUCUAACAAAAAAGACAGAUCUGCCACAAAGCUUGAGAGCAUAUUCGGAUGCAGAGGCGGCAGCCUUCGGUGGCGCGAUAGCGCCAACGUUCUCAACUAUGACACGCAAAACGCGUGCUCCGUUGAAUGGAGUUUAUCAUG, for which the “polymerase ribozyme fitness (log ratio)” value is -3.78.
